“Also recorded” adds a separate entry of the source.
Columns and labels:
mCherry [1] = assay: Split Cas13 (559/560) or WTCas13 driven by inducible promoters (NFkB, CAGA12, AP1), mCherry knockdown; format: cell-based; conditions: NFkB promoter with TGFbeta; CAGA12 promoter with TNFalpha; AP1 promoter with PMA
Excerpt: FIG. 13A-13E is a series of schematics and graphs showing the coupling of split Cas13 (559/560) expression to inducible promoters responsive to endogenous signals. Inducible promoters responsive to endogenous signals drove split Cas13 expression for the construction of AND logic gate. FIG. 13A is a schematic showing the transfection compositions of endogenous signal-responsive promoters (e.g., “short response elements” and “miniP”) driving split Cas13d's. […] FIG. 13E is a series of bar graphs showing that orthogonality among the 3 inducible promoters tested. In FIG. 13B-13D, the left-right order of the bars for each design is the same as the top-down order of the legend for each bar graph, and “NT-gRNA” is non-target gRNA. In FIG. 13E, the left-right order of the bars is the same as the top-down order of the legend for each bar graph.

NFkB promoter = assay: Orthogonality of inducible promoters driving fluorescent proteins; format: cell-based; conditions: PMA is the inducer for AP1 promoter
Excerpt: Although the propensity of many Cas13 splits to reconstitute spontaneously has led to leaky knockdown activity when coupled with CID systems, transcriptional control of such splits creates an AND gate logic. Inducible promoters (IP) such as WNT, NFkB, CAGA12, and AP1 promoters are available to orthogonally drive split Cas13 expression. In such design, there can only be target knockdown activity when there is input for both promoters. After verification for the ability of these promoters to inducibly drive gene expression using fluorescent proteins (see e.g., FIG. 13E), experiments were conducted with split RfxCas13d pieces and WT RfxCas13d. The chosen split was 559/560 as this split pair is able to achieve target knockdown efficiency more than 80%, and its knockdown ability surpasses that of WT RfxCas13d when coupled with the GIB CID system. Inducible promoter driving the WT Cas13 serves as the positive control (see e.g., FIG. 13A middle panel; see e.g., setting 3 in FIG. 13B, corresponding to “IP-WT” in FIG. 13B-13D). The highest inducibility among the 3 IPs was 30% inducibility with the promoter CAGA12. […] As such, the aforementioned constructs (e.g., split recombinase and IPs) can be integrated into AAVS1 sites and their performance evaluated.

[2] = system: mCherry expression in HEK 293 FT cells; assay: Cas13d/gRNA mCherry knockdown, transient transfection, flow cytometry; format: cell-based; conditions: mCherry expression at various levels
Excerpt: FIG. 4A-4D is a series of schematics and graphs showing that Cas13d achieved robust transgene knockdown in HEK 293 FT cells. FIG. 4A is a schematic showing the necessary components for the CRISPR/Cas13d system. […] Minimizing either one component led to the abolishment of knockdown ability.
In order to gain better understanding of the activity of the Cas13 effector/gRNA system, it was first examined how variation in the expression of each components (e.g., target, guide, and/or effector protein) relate to the knockdown efficiency of the system. HEK 293 FT cells were transiently transfected with the components of the system, and expression of the targeted gene, mCherry, was tested using flow cytometry. […] Another important feature of Cas13d is its ability to process pre-mature gRNA arrays and achieve multiplexed gene targeting. To verify this, pre-gRNAs with spacer regions flanked by 2 direct repeat sequences were transfected with Cas13d into HEK 293 FT cells. Target gene knockdown was later quantified and compared to that by mature gRNAs.

[3] = system: bystander fluorescent proteins (GFP, BFP, iRFP); assay: Collateral cleavage of bystander fluorescent proteins by Cas13d during mCherry on-target knockdown; format: cell-based
Excerpt: FIG. 5A-5C is a series of schematics and graphs showing collateral activity of Cas13d. […] As the plasmid dosage of the bystander fluorescent protein decreased, bystander expression was knocked down at a higher level.
The green fluorescent protein (GFP) was used initially as a transfection marker and as a non-targeted gene expression control. […] GFP was knocked down by Cas13d only when mCherry was present, confirming that this is a collateral activity instead of a result from non-specific gRNA design.

[4] = system: mCherry reporter and endogenous transcripts in HEK293T cells; conditions: cited from earlier work
mCherry [5] = assay: mCherry knockdown by inducible split RfxCas13d (ON switch) in transfected HEK 293 FT cells, flow cytometry; format: cell-based
HLA-A2 = assay: Endogenous gene knockdown: HLA-A2 antibody staining of HEK 293FT cells transfected with B2M targeting gRNA, flow cytometry; format: cell-based; conditions: RAP inducible split pair, compared with WT RfxCas13

Molecule: CCCCCCCCCCCCCC(=O)O[C@@H]1[C@@H](C)[C@@]2(O)[C@@H](C=C(CO)C[C@]3(O)C(=O)C(C)=C[C@@H]23)[C@@H]2C(C)(C)[C@]12OC(C)=O [PMA, reference compound]
- mCherry knockdown by split Cas13d or WTCas13 expressed from inducible promoter (mCherry [1]): induced mCherry knockdown
- activation of NFkB inducible promoter (NFkB promoter): turned on

B1: Cas13d: type VI-D CRISPR-associated RNA-guided ribonuclease Cas13d Ruminococcus flavefaciens, SEQ ID NO: 1 (protein, listed as Ruminococcus flavefaciens)
chain: IEKKKSFAKGMGVKSTLVSGSKVYMTTFAEGSDARLEKIVEGDSIRSVNEGEAFSAEMADKNAGYKIGNAKFSHPKGYAVVANNPLYTGPVQQDMLGLKETLEKRYFGESADGNDNICIQVIHNILDIEKILAEYITNAAYAVNNISGLDKDIIGFGKFSTVYTYDEFKDPEHHRAAFNNNDKLINAIKAQYDEFDNFLDNPRLGYFGQAFFSKEGRNYIINYGNECYDILALLSGLRHWVVHNNEEESRISRTWLYNLDKNLDNEYISTLNYLYDRITNELTNSFSKNSAANVNYIAETLGINPAEFAEQYFRFSIMKEQKNLGFNITKLREVMLDRKDMSEIRKNHKVFDSIRTKVYTMMDFVIYRYYIEEDAKVAAANKSLPDNEKSLSEKDIFVINLRGSFNDDQKDALYYDEANRIWRKLENIMHNIKEFRGNKTREYKKKDAPRLPRILPAGRDVSAFSKLMYALTMFLDGKEINDLLTTLINKFDNIQSFLKVMPLIGVNAKFVEEYAFFKDSAKIADELRLIKSFARMGEPIADARRAMYIDAIRILGTNLSYDELKALADTFSLDENGNKLKKGKHGMRNFIINNVISNKRFHYLIRYGDPAHLHEIAKNEAVVKFVLGRIADIQKKQGQNGKNQIDRYYETCIGKDKGKSVSEKVDALTKIITGMNYDQFDKKRSVIEDTGRENAEREKFKKIISLYLTVIYHILKNIVNINARYVIGFHCVERDAQLYKEKGYDINLKKLEEKGFSSVTKLCAGIDETAPDKRKDVEKEMAERAKESIDSLESANPKLYANYIKYSDEKKAEEFTRQINREKAKTALNAYLRNTKWNVIIREDLLRIDNKTCTLFRNKAVHLEVARYVHAYINDIAEVNSYFQLYHYIMQRIIMNERYEKSSGKVSEYFDAVNDEKKYNDRLLKLLCVPFGYCIPRFKNLSIEALFDRNEAAKFDKEKKKVSGNS
- mCherry knockdown efficiency [2]: around 80%
- effect on bystander iRFP expression ([3]; mCherry on-target knockdown by Cas13d): least disturbed; also recorded: minimally affected
- effect on bystander BFP expression ([3]; mCherry targeting Cas13d system): strongly affected
- effect on bystander GFP expression ([3]; mCherry targeting Cas13d system, mCherry present): knocked down along with mCherry
- knockdown efficiency ([4]; HEK293T cells, mCherry reporter and endogenous transcripts): 80-95%
- knockdown of mCherry and endogenous gene expression ([4]; mammalian cells): 85-90%

B2: 565/566: RfxCas13d split between residues 565/566; N and C fragments plain or fused to CID domains (protein)
chain 1: IEKKKSFAKGMGVKSTLVSGSKVYMTTFAEGSDARLEKIVEGDSIRSVNEGEAFSAEMADKNAGYKIGNAKFSHPKGYAVVANNPLYTGPVQQDMLGLKETLEKRYFGESADGNDNICIQVIHNILDIEKILAEYITNAAYAVNNISGLDKDIIGFGKFSTVYTYDEFKDPEHHRAAFNNNDKLINAIKAQYDEFDNFLDNPRLGYFGQAFFSKEGRNYIINYGNECYDILALLSGLRHWVVHNNEEESRISRTWLYNLDKNLDNEYISTLNYLYDRITNELTNSFSKNSAANVNYIAETLGINPAEFAEQYFRFSIMKEQKNLGFNITKLREVMLDRKDMSEIRKNHKVFDSIRTKVYTMMDFVIYRYYIEEDAKVAAANKSLPDNEKSLSEKDIFVINLRGSFNDDQKDALYYDEANRIWRKLENIMHNIKEFRGNKTREYKKKDAPRLPRILPAGRDVSAFSKLMYALTMFLDGKEINDLLTTLINKFDNIQSFLKVMPLIGVNAKFVEEYAFFKDSAKIADELRLIKSFARMGEPIADARRAMYIDAIRILGTNLSYDELK
chain 2: ALADTFSLDENGNKLKKGKHGMRNFIINNVISNKRFHYLIRYGDPAHLHEIAKNEAVVKFVLGRIADIQKKQGQNGKNQIDRYYETCIGKDKGKSVSEKVDALTKIITGMNYDQFDKKRSVIEDTGRENAEREKFKKIISLYLTVIYHILKNIVNINARYVIGFHCVERDAQLYKEKGYDINLKKLEEKGFSSVTKLCAGIDETAPDKRKDVEKEMAERAKESIDSLESANPKLYANYIKYSDEKKAEEFTRQINREKAKTALNAYLRNTKWNVIIREDLLRIDNKTCTLFRNKAVHLEVARYVHAYINDIAEVNSYFQLYHYIMQRIIMNERYEKSSGKVSEYFDAVNDEKKYNDRLLKLLCVPFGYCIPRFKNLSIEALFDRNEAAKFDKEKKKVSGNS
- performance after NES/NLS compartmentalization (mCherry [5]; GIB induced split pairs, NES on one moiety, NLS on the other): high inducibility with minimal leakiness
- performance of reversed CID orientation versus original orientation (mCherry [5]; GIB: N ss-GAI/GID-ss C, ABA: N ss-PYL/ABI-ss C): stronger inducibility and weaker leakiness
- knockdown across the various CID systems (mCherry [5]; split pairs coupled with CID domains, with inducer): efficient knockdown; also recorded: consistently strong drug-induced knockdown
- decrease in HLA-A2 expression level (HLA-A2): comparable decrease in HLA-A2 expression level
